Measurements as given in paper PMC4606517, “Water-mediated recognition of t1-adenosine anchors Argonaute2 to microRNA targets”.

Columns and labels:
[1] = target: Ago2 wild type (Homo sapiens, UniProt Q9UKV8 1-859); assay: filter binding; guide-loaded Ago2; target Kd; Filter binding: 30 mM Tris pH 8.0, 0.1 M K acetate, 2 mM Mg acetate, 0.5 mM TCEP, 0.005% NP-40, 0.01 mg/ml yeast tRNA, room temp, 45 min, 0.1 nM target; smFRET: 50 mM Tris pH 8.0, 50 mM NaCl, 60 mM KCl (RISC assembly buffer), 23 C; conditions: protein: recombinant; tags: His6; guide g2-g9 pairs target nt 1-8; 3' overhangs; t1 = target nt 9
Chain of Ago2 wild type (Q9UKV8 whole entry): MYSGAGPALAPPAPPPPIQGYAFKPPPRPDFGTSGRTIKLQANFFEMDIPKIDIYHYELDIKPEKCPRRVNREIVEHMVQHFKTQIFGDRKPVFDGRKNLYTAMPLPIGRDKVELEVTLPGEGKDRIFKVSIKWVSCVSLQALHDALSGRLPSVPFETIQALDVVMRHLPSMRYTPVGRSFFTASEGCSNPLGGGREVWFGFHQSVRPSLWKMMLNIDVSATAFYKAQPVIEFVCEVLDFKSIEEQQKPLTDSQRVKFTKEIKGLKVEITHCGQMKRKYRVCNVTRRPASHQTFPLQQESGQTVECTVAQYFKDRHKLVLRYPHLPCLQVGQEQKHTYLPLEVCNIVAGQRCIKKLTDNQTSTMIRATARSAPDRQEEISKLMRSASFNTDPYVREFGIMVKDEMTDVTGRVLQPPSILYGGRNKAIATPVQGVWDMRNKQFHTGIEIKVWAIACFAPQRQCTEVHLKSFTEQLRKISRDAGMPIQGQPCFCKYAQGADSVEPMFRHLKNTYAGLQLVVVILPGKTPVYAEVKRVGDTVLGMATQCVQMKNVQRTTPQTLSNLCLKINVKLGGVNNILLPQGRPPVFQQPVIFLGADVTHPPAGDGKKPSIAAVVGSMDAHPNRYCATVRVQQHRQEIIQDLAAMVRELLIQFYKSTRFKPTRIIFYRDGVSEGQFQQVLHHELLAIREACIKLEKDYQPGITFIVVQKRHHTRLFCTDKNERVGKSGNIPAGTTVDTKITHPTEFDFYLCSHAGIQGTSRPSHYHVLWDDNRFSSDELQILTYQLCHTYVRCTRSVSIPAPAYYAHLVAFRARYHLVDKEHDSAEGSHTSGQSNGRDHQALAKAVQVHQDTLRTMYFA

[2] = target: Ago2 A481T (Homo sapiens, UniProt Q9UKV8 1-859, A481T); assay: as above; conditions: protein: recombinant; tags: His6; guide g2-g9 pairs target nt 1-8; 3' overhangs; t1 = target nt 9
Chain of Ago2 A481T (Q9UKV8 whole entry A481T): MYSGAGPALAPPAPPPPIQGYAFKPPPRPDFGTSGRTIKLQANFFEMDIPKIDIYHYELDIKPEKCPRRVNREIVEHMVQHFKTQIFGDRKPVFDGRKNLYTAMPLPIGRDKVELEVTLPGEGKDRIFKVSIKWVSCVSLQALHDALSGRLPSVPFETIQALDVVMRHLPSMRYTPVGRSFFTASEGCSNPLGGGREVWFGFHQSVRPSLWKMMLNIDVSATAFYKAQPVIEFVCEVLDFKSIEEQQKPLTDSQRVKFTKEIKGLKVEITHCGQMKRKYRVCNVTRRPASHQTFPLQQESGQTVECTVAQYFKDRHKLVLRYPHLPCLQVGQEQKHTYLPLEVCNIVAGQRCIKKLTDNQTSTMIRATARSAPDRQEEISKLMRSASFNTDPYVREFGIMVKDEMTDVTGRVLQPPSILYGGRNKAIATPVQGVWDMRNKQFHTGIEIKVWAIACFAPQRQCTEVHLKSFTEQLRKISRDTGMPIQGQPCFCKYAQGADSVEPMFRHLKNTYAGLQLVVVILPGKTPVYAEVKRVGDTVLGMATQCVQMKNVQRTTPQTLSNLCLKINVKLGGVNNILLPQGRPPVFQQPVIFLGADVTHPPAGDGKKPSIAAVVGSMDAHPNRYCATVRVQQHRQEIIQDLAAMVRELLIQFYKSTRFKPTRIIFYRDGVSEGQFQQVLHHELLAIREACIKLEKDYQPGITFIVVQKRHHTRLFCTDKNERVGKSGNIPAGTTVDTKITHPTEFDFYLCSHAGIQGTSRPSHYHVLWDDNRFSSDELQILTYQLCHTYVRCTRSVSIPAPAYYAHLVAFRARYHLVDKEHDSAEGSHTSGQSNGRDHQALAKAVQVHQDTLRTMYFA

B1: guide + t1DAP target (dsRNA)
RNA 1: UUCACAUUGCCCAAGUCUCUU
RNA 2: CAAUGUGAAAA
modifications: 5'-phosphate on guide; target nt 9 = 2,6-diaminopurine (written A)
**Q.** For B1, which Kd [1] is on record?
**A.** 0.45 ± 0.03 nM

B2: guide + t1C target (dsRNA)
RNA 1: UUCACAUUGCCCAAGUCUCUU
RNA 2: CAAUGUGACAA
modifications: 5'-phosphate on guide
**Q.** For B2, which Kd [1] is on record?
**A.** 1.8 ± 0.12 nM

B3: guide + t1U target (dsRNA)
RNA 1: UUCACAUUGCCCAAGUCUCUU
RNA 2: CAAUGUGAUAA
modifications: 5'-phosphate on guide
**Q.** With B3 as the binder, how does the Kd [1] read?
**A.** 1.9 ± 0.1 nM

B4: guide + t1A target (dsRNA)
RNA 1: UUCACAUUGCCCAAGUCUCUU
RNA 2: CAAUGUGAAAA
modifications: 5'-phosphate on guide
**Q.** What does the source list for B4?
**A.** Kd [2]: 1.5 ± 0.13 nM; Kd [1]: 0.75 ± 0.04 nM

B5: guide + t1G target (dsRNA)
RNA 1: UUCACAUUGCCCAAGUCUCUU
RNA 2: CAAUGUGAGAA
modifications: 5'-phosphate on guide
**Q.** With B5 as the binder, how does the Kd [2] read?
**A.** 1.8 ± 0.11 nM

**Q.** What about the Kd [1] of the same binder?
**A.** 1.9 ± 0.09 nM

B6: guide + t1m6A target (dsRNA)
RNA 1: UUCACAUUGCCCAAGUCUCUU
RNA 2: CAAUGUGAAAA
modifications: 5'-phosphate on guide; target nt 9 = N6-methyladenosine (written A)
**Q.** With B6 as the binder, how does the Kd [1] read?
**A.** 1.8 ± 0.12 nM
